Results: patent US20060148715A1, “Structural requirements for STAT3 binding and recruitment to phosphotyrosine ligands” (BAYLOR COLLEGE OF MEDICINE, priority 2004, published 2006)
Each block holds one molecule with its values, some of them ahead of it. Non-standard residues stand in square brackets, D forms with d. No end group written: not given here. *: point of attachment. d‑Biotin‑LC = N-terminal biotin (d-Biotin-LC), O=C(CCCC[C@@H]1SC[C@@H]2NC(=O)N[C@@H]21)NCCCCCC(=O)*; pY = N[C@@H](Cc1ccc(OP(=O)(O)O)cc1)C(=O)O

Legend:
wild type Stat3 [1] = target: T1, wild type Stat3 (Homo sapiens, UniProt P40763); assay: Mirror resonance affinity assay (resonant mirror biosensor); type: binding
T1 construct: made in house; host or cells: Sf9 insect cells (baculovirus, pFastBac1)
Experimental: (§1) Kinetics experiments were performed using an lasys Auto+ resonant mirror biosensor (Affinity Sensor, Paramus, N.J.) (see Sadowski et. al, 1986). Briefly, two-welled cuvettes coated on the bottom of each well with biotin were purchased from Affinity Sensor and prepared for immobilization of biotinylated peptides by coating each surface with 0.04 mg/ml NeutrAvidin (Pierce) and washing with PBS-T (20 mM Na Phosphate, 0.05% Tween-20). Biotinylated peptide (5 μg) was added into each well—experimental peptide to one well and control peptide to the other—and change in arc seconds monitored simultaneously in both wells using the biosensor until stable followed by washing with PBS-T. Real-time binding of Stat3 was conducted at 25° C. at a stir speed of 70 for 10 min starting at the lowest concentration of Stat3. The wells were washed out with three changes of 60 μl PBS-T, and dissociation was allowed to proceed for 5 min. Each well bottom was regenerated by washing with […] of 100 mM formic acid for 2 min and equilibrated with PBS-T for the next round of association assay. Data were collected automatically and analyzed with the FASTplot and GraFit software (see Sheinerman et. al, 2003).
(§2) Mirror resonance affinity assay. Two cells of a biotin-coated cuvette pretreated with saturating amounts of NeutrAvidin. One well of the cuvette was pretreated with biotinylated phosphopeptide based on Y1068 (pY1068, left panel), while the other well was pretreated with biotinylated non-phosphorylated peptide Y1068 (Y1068, right panel) as a control for non-specific binding. Wild type or mutated Stat3 protein was added in the concentrations indicated to each of the two cells and mirror resonance measurements recorded continuously for 10 min as shown.
To obtain quantitative kinetic information about the binding of Stat3 to G-CSFR Y704 and Y744 including association rates (kass), disassociation rates (kdiss) and dissociation equilibrium constants (KD), real-time affinity measurements using a mirror resonance biosensor were performed. The biosensor exploits surface plasmon resonance to measure in real time the alteration in the angle of a laser light reflected from a surface upon which binding events are occurring. Biotinylated peptides were immobilized onto the bottom surface of cuvette wells pre-coated with NeutrAvidin. The interaction of peptides with Stat3 added at different concentrations was measured in real time as altered deflection of a laser light striking the bottom surface of the cuvette; the alterations in the deflection angle measured in arc seconds was analyzed with GraFit software. […] The slightly lower KD for Y704 vs. Y744 is attributable to a faster association rate of Stat3 binding to this phosphododecapeptide.

Stat3-3M [2] = target: T2, Stat3-3M (Homo sapiens, UniProt P40763, E638L/Y640F/Y657F); assay: as above; type: binding
T2 construct: made in house; host or cells: Sf9 insect cells (baculovirus, pFastBac1)
Experimental: as §1, §2

Stat3-6M [3] = target: T3, Stat3-6M (Homo sapiens, UniProt P40763, C687A/E638L/Q692L/S691A/Y640F/Y657F); assay: as above; type: binding
T3 construct: made in house; host or cells: Sf9 insect cells (baculovirus, pFastBac1)
Experimental: as §1, §2

Stat3-4M [4] = target: T4, Stat3-4M (Homo sapiens, UniProt P40763, C687A/Q692L/S691A/Y657F); assay: as above; type: binding
T4 construct: made in house; host or cells: Sf9 insect cells (baculovirus, pFastBac1)
Experimental: as §1, §2

wild type Stat3 [5] = target: T1, wild type Stat3; assay: Phosphopeptide affinity immunoblot (peptide pull-down); type: binding; details: purified wild type Stat3
Experimental: (§3) NeutrAvidin agarose (40 μl; Pierce) was incubated with 10 μg of biotinylated peptide in 300 μl of Buffer A (20 mM HEPES pH 7.5, 20 mM NaF, 1 mM Na3VO4, 1 mM Na4P2O7, 1 mM EDTA, 1 mM EGTA, 20% glycerol, 0.05% NP-40, 1 mM DTT, 1 μg/ml leupeptin, 1 μg/ml aprotinin, 0.5 mM phenylmethylsulfonyl fluoride, 100 mM NaCl) at 4° C. for 2 h and washed with Buffer A 3 times. The NeutrAvidin-peptide complex was then mixed with His-tagged Stat3 protein (5 μg) in 1 ml of Buffer A (without NaCl and NP-40) at 4° C. for 2 h and washed thoroughly. Bound proteins were separated and immunoblotted using Stat3 monoclonal antibody (mAb).
Each peptide was incubated with equal amounts of purified wild type Stat3 protein in peptide pull-down assays (FIG. 1). NeutrAvidin agarose was incubated with the indicated biotinylated peptides (see Table 2 for sequence) or no peptide (CON) as control, washed thoroughly and mixed with identical amount of wild type Stat3. Bound proteins were separated by SDS-PAGE and immunoblotted using Stat3 mAb. Lane ST represents purified wild type Stat3 (0.6 μg) loaded directly onto the gel as positive control. […] Thus, Q at the +3 position of Y1068 phosphopeptide is required for Stat3 binding and appears to be as important for Stat3 binding as phosphorylation on tyrosine. […]

Stat3-E638P [6] = target: T5, Stat3-E638P (Homo sapiens, UniProt P40763, E638P); assay: as above; type: binding
T5 construct: made in house; host or cells: Sf9 insect cells (baculovirus)
Experimental: as §3
In FIG. 5C, NeutrAvidin agarose was incubated with the indicated biotinylated dodecapeptides (see Table 2 for sequence) or no peptide (CON) as control, washed thoroughly and mixed with wild type Stat3 protein. Bound proteins were separated by SDS-PAGE and immunoblotted using Stat3 mAb. Lane ST represents purified wild type Stat3 (0.6 μg) loaded directly onto the gel as a positive control.
To test the contribution of the E638 amide hydrogen to binding to G-CSFR Y704 and Y744 phosphododecapeptide, Stat3-E638P was generated by site-directed mutagenesis, which eliminated the amide hydrogen donor predicted to bind with oxygen within the +3 Q side chain.

Stat3-3M+K591L = target: T6, Stat3-3M+K591L (Homo sapiens, UniProt P40763, E638L/K591L/Y640F/Y657F); assay: as above; type: binding
T6 construct: made in house; host or cells: Sf9 insect cells (baculovirus, pFastBac1)
Experimental: as §3
(§4) To test the pocket 1 component of the two models and to ensure that the peptide pull-down system was sufficiently sensitive to detect reduced binding of Stat3 containing mutations in pocket 2, either K591L or R609L was added to the 3M mutant to generate Stat3-3M+K591L and Stat3-3M+R609L.
(§5) To test the pocket 1 component of the two models and to ensure that our peptide pull-down system was sufficiently sensitive to detect reduced binding of Stat3 containing mutations in pocket 2, either K591L or R609L was added to the 3M mutant to generate Stat3-3M+K591L and Stat3-3M+R609L.

Stat3-3M+R609L = target: T7, Stat3-3M+R609L (Homo sapiens, UniProt P40763, E638L/R609L/Y640F/Y657F); assay: as above; type: binding
T7 construct: made in house; host or cells: Sf9 insect cells (baculovirus, pFastBac1)
Experimental: as §3, §4, §5

Stat3-4M [7] = target: T4, Stat3-4M; assay: as above; type: binding; details: compared with wild type Stat3
Experimental: as §3
NeutrAvidin agarose was incubated with the indicated biotinylated peptides (see Table 2 for exemplary sequences) or no peptide (CON) as control, washed thoroughly and mixed with identical amounts of wild type or mutant Stat3 proteins as indicated. Bound proteins were separated by SDS-PAGE and immunoblotted using Stat3 mAb. Lane ST represents purified wild type Stat3 (0.6 μg) loaded directly onto the gel as positive control.
Stat3 proteins in which mutations were introduced to alter side chains from charged or polar to non-polar within amino acid residues were predicted in each model to be critical for Stat3 binding (FIG. 1B). The recombinant Stat3 proteins were expressed in Sf9 insect cells and purified to equivalent levels using Ni-NTA resin (FIG. 1C).

Stat3-E638P [8] = target: T8, Stat3-E638P (human, UniProt P40763 1-770); assay: peptide pull-down: biotinylated peptide on NeutrAvidin agarose, purified His-tagged Stat3 protein added, bound protein immunoblotted with Stat3 mAb
T8 construct: Produced in Sf9 cells; CD spectrum essentially identical to wild type

Stat3-3M [9] = target: Stat3-3M (human, UniProt P40763 1-770, limits assumed); assay: as above
Stat3-6M [10] = target: Stat3-6M (human, UniProt P40763 1-770, limits assumed); assay: as above
Stat3-4M [11] = target: Stat3-4M (human, UniProt P40763 1-770, limits assumed); assay: as above
[12] = target: T9, wild type Stat3 (recombinant human Stat3alpha with N-terminal 6-histidine tag) (human, UniProt P40763 1-770); assay: as above
T9 construct: Expressed in Sf9 cells and purified on Ni-NTA for peptide assays; expressed from pcDNA3.1 in 293T cells for the G-CSFR co-immunoprecipitation; also called WT; purified Stat3
T9 sequence (P40763 other isoform, or with tags, fused parts or gaps limits assumed): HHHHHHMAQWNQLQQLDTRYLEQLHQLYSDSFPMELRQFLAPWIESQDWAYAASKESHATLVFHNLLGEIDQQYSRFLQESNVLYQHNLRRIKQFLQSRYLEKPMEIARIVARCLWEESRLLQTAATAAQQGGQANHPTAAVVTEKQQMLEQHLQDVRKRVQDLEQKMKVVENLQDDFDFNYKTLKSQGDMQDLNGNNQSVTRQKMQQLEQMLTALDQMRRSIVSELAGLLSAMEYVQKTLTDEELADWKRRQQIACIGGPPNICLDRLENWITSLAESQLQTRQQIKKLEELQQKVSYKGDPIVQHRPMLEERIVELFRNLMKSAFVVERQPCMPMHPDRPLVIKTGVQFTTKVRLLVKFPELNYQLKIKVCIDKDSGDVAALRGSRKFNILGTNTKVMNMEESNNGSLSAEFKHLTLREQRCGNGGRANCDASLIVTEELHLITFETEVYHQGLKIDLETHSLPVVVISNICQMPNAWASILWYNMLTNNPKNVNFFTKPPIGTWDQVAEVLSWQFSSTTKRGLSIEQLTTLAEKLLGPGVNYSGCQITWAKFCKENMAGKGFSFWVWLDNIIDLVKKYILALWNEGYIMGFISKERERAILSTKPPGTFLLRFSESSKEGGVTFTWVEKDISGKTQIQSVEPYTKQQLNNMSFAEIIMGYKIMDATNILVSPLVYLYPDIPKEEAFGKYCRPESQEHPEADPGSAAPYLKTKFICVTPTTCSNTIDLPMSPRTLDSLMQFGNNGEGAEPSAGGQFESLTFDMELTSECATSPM

T4 sequence (P40763 whole entry Y657F/C687A/S691A/Q692L): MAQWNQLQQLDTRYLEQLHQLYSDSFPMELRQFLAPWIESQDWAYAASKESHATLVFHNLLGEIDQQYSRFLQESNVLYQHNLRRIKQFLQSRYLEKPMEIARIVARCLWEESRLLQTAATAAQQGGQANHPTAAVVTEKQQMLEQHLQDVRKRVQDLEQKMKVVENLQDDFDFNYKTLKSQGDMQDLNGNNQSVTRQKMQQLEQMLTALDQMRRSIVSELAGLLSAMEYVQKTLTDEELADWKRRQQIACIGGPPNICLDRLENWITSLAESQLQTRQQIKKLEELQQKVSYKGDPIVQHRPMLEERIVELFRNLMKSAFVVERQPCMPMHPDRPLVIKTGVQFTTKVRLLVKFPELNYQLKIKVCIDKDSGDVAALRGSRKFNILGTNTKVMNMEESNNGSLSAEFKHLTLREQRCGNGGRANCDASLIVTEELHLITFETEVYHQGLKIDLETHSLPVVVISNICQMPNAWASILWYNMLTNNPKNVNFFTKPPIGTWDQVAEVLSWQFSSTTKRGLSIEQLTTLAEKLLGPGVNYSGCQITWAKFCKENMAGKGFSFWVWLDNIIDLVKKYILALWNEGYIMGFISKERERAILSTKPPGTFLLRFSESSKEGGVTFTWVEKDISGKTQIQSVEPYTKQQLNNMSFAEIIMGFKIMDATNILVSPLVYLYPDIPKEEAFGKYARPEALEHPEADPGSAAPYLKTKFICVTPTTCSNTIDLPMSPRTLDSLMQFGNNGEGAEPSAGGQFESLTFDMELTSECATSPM
T1 sequence (P40763 whole entry): as the sequence (P40763 whole entry Y657F/C687A/S691A/Q692L) above, with F657Y, A687C, A691S, L692Q counted along it
T2 sequence (P40763 whole entry E638L/Y640F/Y657F): as the sequence (P40763 whole entry Y657F/C687A/S691A/Q692L) above, with E638L, Y640F, A687C, A691S, L692Q counted along it
Sequence of Stat3-6M (human, UniProt P40763 1-770, limits assumed) (P40763 other isoform, or with tags, fused parts or gaps limits assumed): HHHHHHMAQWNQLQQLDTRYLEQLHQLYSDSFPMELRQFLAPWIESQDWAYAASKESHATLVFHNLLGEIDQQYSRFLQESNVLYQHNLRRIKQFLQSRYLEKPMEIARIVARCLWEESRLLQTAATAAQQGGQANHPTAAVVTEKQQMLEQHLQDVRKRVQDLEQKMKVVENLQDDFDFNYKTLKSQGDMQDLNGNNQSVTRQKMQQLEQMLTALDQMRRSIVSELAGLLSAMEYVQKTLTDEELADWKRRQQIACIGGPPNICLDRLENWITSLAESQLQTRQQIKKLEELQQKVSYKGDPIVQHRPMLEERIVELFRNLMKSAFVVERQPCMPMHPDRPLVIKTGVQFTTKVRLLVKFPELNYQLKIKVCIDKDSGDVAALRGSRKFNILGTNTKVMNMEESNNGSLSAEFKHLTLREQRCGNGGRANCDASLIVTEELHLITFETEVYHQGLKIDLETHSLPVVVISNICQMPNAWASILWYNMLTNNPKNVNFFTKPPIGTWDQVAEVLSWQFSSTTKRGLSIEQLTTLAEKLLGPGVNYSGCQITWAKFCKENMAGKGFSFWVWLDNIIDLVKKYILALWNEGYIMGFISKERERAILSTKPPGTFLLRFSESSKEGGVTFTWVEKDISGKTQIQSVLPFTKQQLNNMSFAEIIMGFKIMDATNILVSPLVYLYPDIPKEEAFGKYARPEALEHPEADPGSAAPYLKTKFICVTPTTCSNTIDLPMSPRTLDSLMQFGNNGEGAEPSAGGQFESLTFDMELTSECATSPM
T7 sequence (P40763 whole entry R609L/E638L/Y640F/Y657F): as the sequence (P40763 whole entry Y657F/C687A/S691A/Q692L) above, with R609L, E638L, Y640F, A687C, A691S, L692Q counted along it
T5 sequence (P40763 whole entry E638P): as the sequence (P40763 whole entry Y657F/C687A/S691A/Q692L) above, with E638P, F657Y, A687C, A691S, L692Q counted along it
T6 sequence (P40763 whole entry K591L/E638L/Y640F/Y657F): as the sequence (P40763 whole entry Y657F/C687A/S691A/Q692L) above, with K591L, E638L, Y640F, A687C, A691S, L692Q counted along it
T3 sequence (P40763 whole entry E638L/Y640F/Y657F/C687A/S691A/Q692L): as the sequence (P40763 whole entry Y657F/C687A/S691A/Q692L) above, with E638L, Y640F counted along it
Sequence of Stat3-4M (human, UniProt P40763 1-770, limits assumed) (P40763 other isoform, or with tags, fused parts or gaps limits assumed): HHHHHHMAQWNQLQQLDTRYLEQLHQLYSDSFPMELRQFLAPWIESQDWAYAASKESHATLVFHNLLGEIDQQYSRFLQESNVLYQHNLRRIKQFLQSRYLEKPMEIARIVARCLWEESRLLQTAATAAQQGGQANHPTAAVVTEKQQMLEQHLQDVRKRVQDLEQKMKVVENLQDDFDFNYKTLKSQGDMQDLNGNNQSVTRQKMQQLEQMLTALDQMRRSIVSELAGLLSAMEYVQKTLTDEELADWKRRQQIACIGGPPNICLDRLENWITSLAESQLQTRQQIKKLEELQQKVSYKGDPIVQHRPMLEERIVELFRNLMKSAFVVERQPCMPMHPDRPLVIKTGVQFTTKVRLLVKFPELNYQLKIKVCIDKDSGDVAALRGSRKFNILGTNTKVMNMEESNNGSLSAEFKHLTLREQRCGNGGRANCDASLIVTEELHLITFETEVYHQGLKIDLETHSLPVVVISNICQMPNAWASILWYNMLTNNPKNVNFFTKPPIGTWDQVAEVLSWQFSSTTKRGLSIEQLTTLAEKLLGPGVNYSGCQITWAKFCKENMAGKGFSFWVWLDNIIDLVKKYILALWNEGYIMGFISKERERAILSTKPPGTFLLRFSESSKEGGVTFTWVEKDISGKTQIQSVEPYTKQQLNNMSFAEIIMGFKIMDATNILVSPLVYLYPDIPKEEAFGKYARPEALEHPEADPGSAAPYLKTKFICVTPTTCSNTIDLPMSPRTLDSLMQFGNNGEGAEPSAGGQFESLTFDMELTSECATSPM
T8 sequence (P40763 other isoform, or with tags, fused parts or gaps E638P E638P limits assumed): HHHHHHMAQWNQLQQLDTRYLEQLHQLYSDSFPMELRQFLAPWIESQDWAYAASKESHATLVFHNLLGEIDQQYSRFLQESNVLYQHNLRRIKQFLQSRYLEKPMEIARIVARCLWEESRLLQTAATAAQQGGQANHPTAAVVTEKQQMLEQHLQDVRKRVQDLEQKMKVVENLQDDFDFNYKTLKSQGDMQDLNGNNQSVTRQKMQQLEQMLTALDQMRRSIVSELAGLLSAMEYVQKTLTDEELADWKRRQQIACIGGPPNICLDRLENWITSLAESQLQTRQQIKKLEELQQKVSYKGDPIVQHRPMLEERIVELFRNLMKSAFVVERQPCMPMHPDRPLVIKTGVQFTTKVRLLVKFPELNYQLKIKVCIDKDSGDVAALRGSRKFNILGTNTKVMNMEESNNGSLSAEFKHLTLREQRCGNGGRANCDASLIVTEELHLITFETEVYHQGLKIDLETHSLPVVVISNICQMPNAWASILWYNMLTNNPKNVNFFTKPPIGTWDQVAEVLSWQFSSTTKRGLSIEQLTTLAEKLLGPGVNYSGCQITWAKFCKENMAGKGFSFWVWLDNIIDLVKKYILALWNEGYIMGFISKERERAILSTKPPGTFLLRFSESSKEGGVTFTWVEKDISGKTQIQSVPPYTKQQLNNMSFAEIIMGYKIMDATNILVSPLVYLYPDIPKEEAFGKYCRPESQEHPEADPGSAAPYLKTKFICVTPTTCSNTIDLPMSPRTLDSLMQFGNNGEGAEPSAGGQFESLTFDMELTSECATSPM
Sequence of Stat3-3M (human, UniProt P40763 1-770, limits assumed) (P40763 other isoform, or with tags, fused parts or gaps limits assumed): as the sequence (P40763 other isoform, or with tags, fused parts or gaps E638P E638P limits assumed) above, with P644L, Y646F, Y663F counted along it

Molecule: CC[C@H](C)[C@H](NC(=O)[C@H](Cc1ccc(OP(=O)(O)O)cc1)NC(=O)[C@H](CCC(=O)O)NC(=O)[C@@H]1CCCN1C(=O)[C@@H](NC(=O)[C@@H]1CCCN1C(=O)[C@H](CC(C)C)NC(=O)CCCCCNC(=O)CCCC[C@@H]1SC[C@@H]2NC(=O)N[C@@H]21)C(C)C)C(=O)N[C@@H](CC(N)=O)C(=O)N[C@@H](CCC(N)=O)C(=O)N[C@@H](CO)C(=O)N[C@H](C(=O)N1CCC[C@H]1C(=O)O)C(C)C [Y1068 PDP, LPVPE(pY)INQSVP]
Kd (wild type Stat3 [1]): 223 nM | Kd (Stat3-3M [2]): 177 nM | Kd (Stat3-6M [3]): 249 ± 22 nM | Kd (Stat3-4M [4]): 271 ± 48 nM

Stat3 detected in peptide pull-down (Stat3 immunoblot) (wild type Stat3 [5]): little to no Stat3 was detected
Molecule: LPVPEYINQSVP [unphosphorylated Y1068 dodecapeptide]

binding of Stat3-E638P in peptide affinity immunoblot (Stat3-E638P [6]): no binding | binding of Stat3-3M+K591L in peptide pull-down (Stat3-3M+K591L): elimination of binding | binding of Stat3-3M+R609L in peptide pull-down (Stat3-3M+R609L): elimination of binding | level of Stat3-4M bound in peptide affinity immunoblot (Stat3-4M [7]): equal to or greater than wild type Stat3
Molecule: VQNPV(pY)HNQPLN (VQNPV[pY]HNQPLN) [Y1086 PDP]

binding result (Stat3-E638P [8]): no binding | binding result (Stat3-3M [9]): no binding | binding result (Stat3-6M [10]): no binding | binding result (Stat3-4M [11]): no binding | binding result [12]: no binding
Molecule: {d‑Biotin‑LC}-PGPGHYLRCDST [Y744 non-phosphorylated dodecapeptide (G-CSFR)]
